Measurements published in the supplement of paper PMC9170038.

System: MS2 coat protein
Test: apparent KD of MS2 coat protein; designed switch direction (-1 OFF switch, 1 ON switch): 1; higher = weaker reporter binding
Summary of the method: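 The apparent KD reported per design is the median over clusters of curve fits to normalised cluster fluorescence. The RNA switches were transcribed on Illumina chips by stalled E. coli RNA polymerase. SNAP-549-labelled MS2 coat protein was titrated from 0.7 or 1.5 nM, doubling up to 3 µM, in Tris-HCl pH 7.5 buffer containing KCl, MgCl2, BSA, DTT, tRNA and Tween-20, with no input, 200 uM small-molecule ligand, or an oligonucleotide input.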

[1] = input ligand: microRNA oligo, concentration not stated
[2] = Eterna round: R95, input ligand: FMN 200 uM
[3] = Eterna round: R95, input ligand: microRNA oligo, concentration not stated
[4] = Eterna round: R95, input ligand: none

Sequence	apparent KD of MS2 coat protein (input ligand: FMN 200 uM) [nM]	apparent KD of MS2 coat protein [1] [nM]	apparent KD of MS2 coat protein (input ligand: none) [nM]	apparent KD of MS2 coat protein [2] [nM]	apparent KD of MS2 coat protein [3] [nM]	apparent KD of MS2 coat protein [4] [nM]
CGUCCCUCCACAGGAUAUCGACCAUUAAAACGGCGAGAAGGGUGGCCACAUGAGGAUCACCCAUGUGGAAUUGGACAAGCUACC [Veonso] (Eterna round: R96, puzzle: Same State NG 1)	127	23.9	127			
GGAGCCAAGGCAGGAUAUUCAUAUUAAUUACAUGAGGAUCACCCAUGUUAGGCCAGAAGGCCUUGGGAGAAGGGCCAUGGCUCG [Xeonanis - 13 mod19] (Eterna round: R96, puzzle: Same State NG 2)	22.9	47.2	60.6			
ACAUGAGAGAAAGGAUAUGUUGUACCUACAUGUGACAUGAGGAUCACCCAUGUGGUAAGUAUGAGACAGAAGGUUCAGAUAUGU [Equivalence 32 - Jieux - Same State NG 2] (Eterna round: R96, puzzle: Same State NG 2)	20.4	51.1	65.7			
UUACUCAUGUAAGGAUAUGCAGCCGUUUCGGCUGCAGAAGGUACUAUAAUACAUGAGGAUCACCCAUGUCUUUUUAAUUUAGAC [JL SSNG1 1.29] (Eterna round: R96, puzzle: Same State NG 1)	56.2	30.7	47.8			
UUCUCACAUGAGGAUCACCCAUGUGAGCCUCUGUGAGGAUAUCCGACAUAAUUAAGUGAAGGAGAAGGUACACGAG [Malean] (puzzle: Same State 1)				24.8	30.2	19.5
AGGAAGGAGACUGAGGAUAUCGUUGAAAGGACAUGAGGAUCACCCAUGUGUAUAGGAUUGGAGAACGAGAAGGCAGAGGAGUGGA [JR_SS2_Sub045] (puzzle: Same State 2)				36.4	46.6	71.2
AUUCUUAAUGCAGGAUAUGAUUAACAUGAGGAUCACCCAUGUGGUGUUGUGAGUAAGGAGAGUGAUCAGAAGGGCAUUUUUUUU [JMF's solution 32] (Eterna round: R96, puzzle: Same State NG 2)	316	271	210			
CAGUAUCGCGGAGGAUAUGGGCUGAGACCGGAGCAACUCUGGUCAACAUGAGGAUCACCCAUGUCCCAGAAGGCCGCGAUGCUG [Enquoninso] (Eterna round: R96, puzzle: Same State NG 2)	18.4	62.2	96.1			
GCGUUUAACGUAGGAUAUCGAGCUACAUGAGGAUCACCCAUGUCUUUGUAAAGUUUUUUUAAUUACGAGAAGGACGUUUUGCAU [JR_SSNG2_Sub072] (Eterna round: R96, puzzle: Same State NG 2)	18.7	26.7	35.8			
GGAAAACAUGAGGAUCACCCAUGUGAAAACGUGGGAGGAUAUCGAUGGAAACCAUACUGUCGAGAAGGCCCAUGUC [EteRNA is fun!] (Eterna round: R96, puzzle: Same State 1)		41.8				
UUAUUAUUUACAUGAGGAUCACCCAUGUUUUUAUGUCAGAGAUAGGAUAUAGUUUUCUCGUUUUUCUAGAAGGAUCUUUUUAUU [JR_SSNG3_Sub085] (Eterna round: R96, puzzle: Same State NG 3)	18.6	17	22.8			
AGUCCAGCCUGAGCUGGACAAAAGCAUGUACAUGAGGAUCACCCAUGUCAUGUACAAGCUUUUUGCUCGUCUUAAUA [Mat - hsa-mir-208a - Mod of JL - D44] (puzzle: Sensor for hsa-mir-208a)				544	15.3	634
CUUUCUCUUGCAGGAUAUCCUAGUCUUCGGUUAGGAGAAGGGCAAGGAAACUUGCUAAGCAAGUCUGUAACAGAGAUCCUUCCU [pwkr ssNG1 F9.2] (Eterna round: R96, puzzle: Same State NG 1)	124	78.2	164			
UUGUAUCGAAAAGGAUAUCAUGGGCAACGGUACUGAGAAGGUUUCGAGCUCGAACGAGCAACAUGAGGAUCACCCAUGUCCGAG [Eternabot solution 50] (Eterna round: R96, puzzle: Same State NG 1)	337	280	212			
CGGCGCUGUCGAGAGGAUAUGCGGUGACGGACAUGAGGAUCACCCAUGUUAGCGAUAGCGUUACGGUAGAAGGCUCUACAGUCGC [Soteed Omei mod 10] (puzzle: Same State 2)					49.2	
CUCAAACAUGAGGAUCACCCAUGUGUUGUCAUGGGAGGAUAUCUAAGUUCGUUGUAGUCGGGAGAAGGCCUAUGUC [× ×•×ª×• ×ž×“×™× ×” × ×—×ª-11] (puzzle: Same State 1)					182	

Sequence	apparent KD of MS2 coat protein (input ligand: FMN 200 uM) [nM]	apparent KD of MS2 coat protein [1] [nM]	apparent KD of MS2 coat protein (input ligand: none) [nM]	apparent KD of MS2 coat protein [2] [nM]	apparent KD of MS2 coat protein [3] [nM]	apparent KD of MS2 coat protein [4] [nM]
AGUCCAGCCUGAGCUGGACAAAAGCAUGUACAUGAGGAUCACCCAUGUUCAUGUACAAGCUUUUUGCUCGUCGGAAU [Mat - hsa-mir-208a - Mod of JL - 49] (puzzle: Sensor for hsa-mir-208a)				762	16.5	905
AAGUAACAUGAGGAUCACCCAUGUGAGGUGAGCGUAGGAUAUCGAGGAGGAAGGGUGGAGCGAGAAGGACGAGAGG [JR_SS1_Sub099] (puzzle: Same State 1)				375	189	471
AGUCCAGCCUGAGCUGGACAAAAGCAUGUACAUGAGGAUCACCCAUGUUCAUGUACAAGCUUUUUGCUCGUCUAAAG [Mat - hsa-mir-208a - Mod of JL - 66] (puzzle: Sensor for hsa-mir-208a)				506	16.6	880
AGCGAAAUAAGCAAGGAUAUGUAAUUUGGCACAUGAGGAUCACCCAUGUCAAUCCAUUUUUUUGAACAGAAGGUGCAUUUUUUUU [ak second] (puzzle: Same State 2)				48.6	53.5	45.4
CGGCGCUGUCGAGAGGAUAUGCGGUGACGGACAUGAGGAUCACCCAUGUUAGCGAUAGCGUUACGGUAGAAGGCUCUACAGUCGC [Soteed Omei mod 10] (Eterna round: R96, puzzle: Same State 2)	19.1	125	217			
UGGUACAUGGGAGGAUAUCAUGCAAACAUGAGGAUCACCCAUGUAGCCAUGGAGACAUGGGUAUAUGAGAAGGCCCAUGUACCU [JL SSNG1 3.52] (Eterna round: R96, puzzle: Same State NG 2)	317	51.9	88.3			
GUACAGAUCAGAGGAUAUCACGUCGAAUAGACGUGAGAAGGCUGAUCACACAUGAAUAUUAGUACAUGAGGAUCACCCAUGUAC [SSNG1/15-A1] (Eterna round: R96, puzzle: Same State NG 1)	14.5	12.8	18			
GGUGGGUUACUACCCACACAUGAGGAUCACCCAUGUUUUGGGAAGGAUAUGGUACCUAUUUGGUACCAGAAGGUCCUGUUGGUG [SS-NG3-LRO14] (Eterna round: R96, puzzle: Same State NG 3)	702	445	1020			
UUAUCUCAGACAUGAGGAUCACCCAUGUUUUUUUGUCUUUGACAGGAUAUAGUUGUUUCGUUUUACUAGAAGGGUCAUUUUAUU [JR_SSNG3_Sub024] (Eterna round: R96, puzzle: Same State NG 3)	20.3	20.8	29.8			
UAGGGACAUGAGGAUCACCCAUGUGCCUCAUAUGGAGAAACUCAGGAUAUGCUGAGGAUCACCCGGCAGAAGGGAGAUUUGAGG (Eterna round: R96, puzzle: Same State NG 3)	42.3	26.3	36.4			
AAAGCCCGUGCUAAGGAUAUGCGUACUCCUACAUGAGGAUCACCCAUGUCCCGCCGAAAAGGAAGGCAGAAGGUAGCACGGGCAA [Letiso] (puzzle: Same State 2)				48.3	114	126
UUAUUAUUUACAUGAGGAUCACCCAUGUUUUUAUGUCAGAGAUAGGAUAUAGUAGUCUCGUUUUACUAGAAGGAUCUUUUUAUU [JR_SSNG3_Sub084] (Eterna round: R96, puzzle: Same State NG 3)	13.4	15.8	19.9			
CUGUGUUGCGGGCAGGAUAUGUACUUGAGUACAUGAGGAUCACCCAUGUGCGGGUGUUUCACCCGACAGAAGGGCCUAUCGCGAC [JL-ss2-3.24 ViennaUCT mod] (puzzle: Same State 2)				140	395	329
UGACACACGGCAGGAUAUCGAUUGCAAAGCAAUCGAGAAGGGCCUCAUGUCGUGGAAACGUGACAUGAGGAUCACCCAUGUUGC [Omei SS(NG)1 Cv14] (Eterna round: R96, puzzle: Same State NG 1)	178	19.6	32.9			
UUAUAACAUGAGGAUCACCCAUGUCAUCUAAGUCGAGGAUAUGGGCAAAUAAUAUAAGAACCAGAAGGCGAAUAUU [Mat - Same State 1 - Mod of UCT - D46] (puzzle: Same State 1)				106	147	232
